Read-outs that look alike come from different tables or passages of the source. Blank lines part the entries; values can stand above or below the compound they belong to.
Legend:
[1] = Biodistribution by direct tissue sampling in U87 MG tumor bearing nude mice; conditions: athymic nude, mouse, in vivo, 0.37 MBq, total radioactivity
Experimental: All mice were sacrificed and dissected at 20 h after the injection of the tracers. Blood, U87 MG tumor, major organs, and tissues were collected and weighed wet. The radioactivity in the tissues was measured using the gamma counter. The results were presented as percentage injected dose per gram of tissue (% ID/g). For each mouse, the radioactivity of the tissue samples was calibrated against a known aliquot of the injected activity. Mean uptake (% ID/g) for each group of animals was calculated with standard deviations.
To validate the accuracy of small animal PET quantification, we also performed a biodistribution experiment by using the direct tissue sampling technique. The data shown as the percentage administered activity (injected dose) per gram of tissue (% ID/g) in FIG. 19A. Both ^64Cu-AmBaSar-RGD and ^64Cu-DOTA-RGD mainly accumulated in kidneys, liver, stomach, intestine, and tumor. […] This difference was consistent with the excretion pattern from the microPET imaging results.

[2] = system: U87 MG human glioma xenograft tumors; test: MicroPET imaging of U87 MG tumor-bearing nude mice; type: in vivo, athymic nude mice; conditions: for uptake in U87 MG tumors: microPET
Experimental: (§1) Athymic nude mice (about 10-20 weeks old, with a body weight of 25-35 g) were obtained from Harlan (Charles River, Mass.). All animal experiments were performed according to a protocol approved by University of Southern California Institutional Animal Care and Use Committee. The U87 MG human glioma xenograft model was generated by subcutaneous injection of 5×10^6 U87 MG human glioma cells into the front flank of athymic nude mice. The tumors were allowed to grow 3-5 weeks until 200-500 mm^3 in volume. Tumor growth was followed by caliper measurements of the perpendicular dimensions.
(§2) MicroPET scans and imaging analysis were performed using a rodent scanner (microPET R4; Siemens Medical Solutions) as previously reported (26). Li, Z., Cai, W., Cao, Q., Chen, K., Wu, Z., He, L., and Chen, X. (2007) ^64Cu-labeled tetrameric and octameric RGD peptides for small-animal PET of tumor αvβ3 integrin expression. J Nucl Med 48, 1162-71. […] Ten minute static scans were acquired at 1, 2, 4, and 20 h post injection. The images were reconstructed by a 2-dimensional ordered-subsets expectation maximum (OSEM) algorithm. For each microPET scan, regions of interest were drawn over the tumor, normal tissue, and major organs on the decay-corrected whole-body coronal images. The radioactivity concentration (accumulation) within the tumor, muscle, liver, and kidneys were obtained from the mean value within the multiple regions of interest and then converted to % ID/g.

[3] = MicroPET imaging of U87 MG tumor-bearing nude mice; type: in vivo, athymic nude mice; conditions: athymic nude, mouse, in vivo, iv, 11.1 MBq, total radioactivity
Experimental: as §1, §2

[4] = Metabolic stability in U87 MG tumor-bearing mouse (radio-HPLC of blood and tissue homogenates); type: in vivo, athymic nude mouse; conditions: 1 h post injection, i.v.
Experimental: The blood was collected and immediately centrifuged for 5 min at 13,200 rpm, and the upper serum solution was added to 100 μL PBS solution containing 50% TFA, followed by mixing and centrifugation for 10 min, and the upper solution was then taken out and filtered for HPLC analysis. Liver, kidneys, and tumor were homogenized using a homogenizer, suspended in 1 mL of PBS buffer, and centrifuged for 10 min at 14,000 rpm, respectively. For each sample, after removal of the supernatant, the solution was added to 100 μL PBS solution containing 50% TFA, followed by mixing and centrifugation for 10 min, and the upper solution was then taken and filtered for HPLC analysis. Radioactivity was monitored using a solid-state radiation detector. The eluent was also collected using a fraction collector (1.5 min/fraction) and the radioactivity of each fraction was measured with the γ counter.

[5] = In vitro stability of 64Cu-labeled RGD conjugates in PBS, FBS and mouse serum; type: in vitro ADME; conditions: 37° C., 24 h incubation; for remaining at 24 h, 3.7 MBq/mL: read-out: radiochemical purity / tracer remained intact
Experimental: After incubated at 37° C. for 3, 18, and 24 h, an aliquot of the mixture was removed from the PBS solution and the radiochemical purity was determined with HPLC. For the solution of FBS and mouse serum, the aliquots were added to 100 μL PBS with 50% TFA. After centrifugation, the upper solution was taken and filtered for HPLC analysis.

[6] = Log P of 64Cu-labeled RGD conjugates (1-octanol/PBS); type: physicochemical; conditions: pH 7.4, read-out: log P (octanol/water partition coefficient)
Experimental: After vigorously vortexing for 10 min, the vial was centrifuged for 5 min to ensure the complete separation of layers. Then, 3×10 μL of each layer was pipetted into other test tubes and radioactivity was measured using a gamma counter (Perkin-Elmer Packard Cobra). The measurement was repeated three times, and Log P values were calculated according to a known formula.

[7] = system: U87 MG human glioblastoma cell line (integrin αvβ3-positive); test: Cell uptake study in U87 MG cells; type: cell-based; conditions: blocking with excess cold cyclic RGD
Experimental: U87 MG human glioblastoma cell line (integrin αvβ3-positive) was obtained from the American Type Culture Collection (ATCC, Manassas, Va.) and maintained under standard conditions according to ATCC as following: The U87 MG glioma cells were grown in Gibco's Dulbecco's medium supplemented with 10% fetal bovine serum (FBS), 100 IU/mL penicillin, and 100 μg/mL streptomycin (Invitrogen Co, Carlsbad, Calif.), at 37° C. in humidified atmosphere containing 5% CO2. The U87 MG glioma cells were grown in culture until sufficient cells were available.
The cell uptake study was performed as described in the literature with some modifications. […] The tumor cells were then washed three times with chilled PBS and harvested by 0.1 N NaOH solution containing 0.5% sodium dodecyl sulfate (SDS). The cell suspensions were collected and measured in the gamma counter.

[8] = MicroPET imaging of radiolabeled BFCs in Balb/c mice; type: in vivo; conditions: between 30 min and 2 hours, micro-PET region of interest quantification
Experimental: MicroPET imaging and biodistribution studies were performed with the non-targeted ^64Cu-AmBaSar and ^64Cu-DOTA complexes to allow a comparison of their base-line organ uptake and clearance properties. After 30 min, the radioactivity quickly cleared from muscle and blood, and mainly localized in the bladder and kidneys. Regarding ^64Cu-DOTA, the radioactivity mainly localized in the bladder, kidneys, and liver.
MicroPET imaging and biodistribution of the radiolabeled BFCs were performed on Balb/c mice to evaluate their in vivo properties. Animals (Balb/c, n=2) were injected with 0.3 mCi ^64Cu-AmBaSar or ^64Cu-DOTA through the tail vein. PET imaging (10-min static scans) was performed using a microPET R4 scanner (Concorde Microsystems, Inc, Knoxville, Tenn.), with 120 transaxial planes and spatial resolution of 1.2 mm, at 30 min and 2 h postinjection. The microPET data were reconstructed using the ordered subsets expectation maximization (OSEM) algorithm using the microPET Manager Software (CTI Concorde Microsystems, Inc, Knoxville, Tenn.). Images were then analyzed using the Acquisition Sinogram Image Processing (ASIPro) software (CTI Concorde Microsystems, Inc, Knoxville, Tenn.).

[9] = Biodistribution of radiolabeled BFCs in Balb/c mice; type: in vivo
Experimental: The biodistribution of ^64Cu-AmBaSar and ^64Cu-DOTA were assessed in Balb/c mice. Each animal was sacrificed at the time interval 2 h and the organs dissected. The values of percent injected dose/gram (ID/g %) in different organs were compared and illustrated in FIG. 13. The ^64Cu-AmBaSar cleared rapidly from the blood and predominantly through the kidneys. After 2 h, the kidney and liver uptake reached 1.09±0.27, 0.14±0.01% ID/g, respectively, which is consistent with the excretion pattern from the microPET imaging results. The ^64Cu-DOTA cleared through the kidney and liver, with uptake reached 1.28±0.41, 1.25±0.09, respectively, by 2 h.
For biodistribution studies, one group of mice (Balb/c, n=3) was injected intravenously with the radiotracer ^64Cu-AmBaSar (10 μCi, 100 μL). Another group of mice was injected similarly with ^64Cu-DOTA (10 μCi, 100 μL). Activity injected into each mouse was measured in a dose calibrator (Capintec). After inhalation anesthesia, animals were sacrificed at 2 h postinjection. Tissues and organs of interest were separated and weighed. Radioactivity in each organ was measured using a gamma counter, and radioactivity uptake was expressed as % ID/g. Mean uptake (% ID/g) for each group of animals was calculated with standard deviations.

[10] = Lipophilicity (octanol/water partition coefficient) of 64Cu-AmBaSar and 64Cu-DOTA; type: physicochemical; conditions: 1-octanol/PBS, pH 7.4
Experimental: Information about the lipophilicity of the ^64Cu-AmBaSar and ^64Cu-DOTA was obtained by measuring their partitioning in a 1-octanol/water system. Counts in samples were used to determine partition coefficients (log P) values, calculated using a known formula. The log P values were measured at pH 7.4 in PBS. The log P value of ^64Cu-AmBaSar is −2.6, and the corresponding value of ^64Cu-DOTA is −2.3. Both ^64Cu-AmBaSar and ^64Cu-DOTA are hydrophilic.
The partition coefficient value was expressed as log P. Log P of ^64Cu-AmBaSar or ^64Cu-DOTA was determined by measuring the distribution of radioactivity in 1-octanol and PBS. A 5 μL sample of ^64Cu-AmBaSar or ^64Cu-DOTA in PBS was added to a vial containing 1 mL each of 1-octanol and PBS. After vortexing for 5 min, the vial was centrifuged for 5 min to ensure complete separation of layers. Then, 5 μL of each layer was pipetted into other test tubes and radioactivity was measured using a gamma counter (Packard). The measurement was repeated three times.

[11] = 2 h postinjection, Balb/c mice, i.v.

Structure (SMILES): N=C(N)NCCC[C@@H]1NC(=O)[C@H](CCCCNC(=O)c2ccc(CNC34CNCCNCC(N)(CNCCNC3)CNCCNC4)cc2)NC(=O)[C@@H](Cc2ccc(O)cc2)NC(=O)[C@H](CC(=O)O)NC(=O)CNC1=O [^64Cu-AmBaSar-RGD, metal not drawn]
tissue uptake at 20 h ([1]; direct tissue sampling, 20 h p.i., read-out: kidneys uptake): 1.51 ± 0.27 %ID/g | tissue uptake at 20 h ([1]; direct tissue sampling, 20 h p.i., read-out: liver uptake): 0.55 ± 0.06 %ID/g | uptake in U87 MG tumors ([2]; 1 h p.i.): 2.04±0.14 % ID/g | uptake in U87 MG tumors ([2]; 4 h p.i.): 1.87±0.11 % ID/g | uptake in U87 MG tumors ([2]; 20 h p.i.): 0.97±0.05 % ID/g | tissue uptake at 1 h ([3]; microPET, 1 h p.i., read-out: liver uptake): 0.89 ± 0.13 %ID/g | tissue uptake at 1 h ([3]; microPET, 1 h p.i., read-out: renal uptake): 2.83 ± 0.77 %ID/g | tissue uptake at 2 h ([3]; microPET, 2 h p.i., read-out: liver uptake): 0.76 ± 0.13 %ID/g | tissue uptake at 2 h ([3]; microPET, 2 h p.i., read-out: renal uptake): 2.68 ± 0.55 %ID/g | tissue uptake at 4 h ([3]; microPET, 4 h p.i., read-out: liver uptake): 0.75 ± 0.14 %ID/g | tissue uptake at 4 h ([3]; microPET, 4 h p.i., read-out: renal uptake): 2.49 ± 0.5 %ID/g | tissue uptake at 20 h ([3]; microPET, 20 h p.i., read-out: liver uptake): 0.64 ± 0.06 %ID/g | tissue uptake at 20 h ([3]; microPET, 20 h p.i., read-out: renal uptake): 1.43 ± 0.35 %ID/g | amount of intact tracer in the blood [4]: approximately 88% | amount of intact tracer in the kidneys [4]: ~98% | amount of intact tracer in the liver [4]: ~98% | amount of intact tracer in the tumor [4]: ~95% | radiochemical purity / tracer remained intact ([5]; PBS or FBS): more than 97% | radiochemical purity / tracer remained intact ([5]; mouse serum): > 95% | remaining at 24 h, 3.7 MBq/mL ([5]; mouse serum): > 95% | remaining at 24 h, 3.7 MBq/mL ([5]; serum, pH 7.4, PBS or FBS): > 97% | logP [6]: -2.44 ± 0.12 | binding to U87 MG cells in presence of excess cold cyclic RGD peptide [7]: efficiently blocked

Structure (SMILES): N=C(N)NCCC[C@@H]1NC(=O)[C@H](CCCCNC(=O)CN2CCN(CC(=O)O)CCN(CC(=O)O)CCN(CC(=O)O)CC2)NC(=O)[C@@H](Cc2ccc(O)cc2)NC(=O)[C@H](CC(=O)O)NC(=O)CNC1=O [^64Cu-DOTA-RGD, metal not drawn]
tissue uptake at 20 h ([1]; kidneys uptake): 0.98 ± 0.4 %ID/g | tissue uptake at 20 h ([1]; liver uptake): 2.16 ± 0.85 %ID/g | uptake in U87 MG tumors ([2]; 1 h p.i.): 2.03±0.10 % ID/g | uptake in U87 MG tumors ([2]; 2 h p.i.): 1.97±0.05 % ID/g | uptake in U87 MG tumors ([2]; 4 h p.i.): 1.88±0.29 % ID/g | uptake in U87 MG tumors ([2]; 20 h p.i.): 0.88±0.07 % ID/g | liver uptake compared with 64Cu-AmBaSar-RGD ([2]; mouse, in vivo): 2-3 times | tissue uptake at 1 h ([3]; liver uptake): 2.28 ± 1.08 %ID/g | tissue uptake at 2 h ([3]; liver uptake): 2.31 ± 1.34 %ID/g | tissue uptake at 4 h ([3]; liver uptake): 2.15 ± 0.9 %ID/g | tissue uptake at 20 h ([3]; liver uptake): 2.52 ± 1.43 %ID/g | tissue uptake at 1 h ([3]; renal uptake): 1.52 ± 0.46 %ID/g | tissue uptake at 2 h ([3]; renal uptake): 1.33 ± 0.23 %ID/g | tissue uptake at 4 h ([3]; renal uptake): 1.55 ± 0.61 %ID/g | tissue uptake at 20 h ([3]; renal uptake): 1.58 ± 0.13 %ID/g | binding to U87 MG cells in presence of excess cold cyclic RGD peptide [7]: efficiently blocked

decrease of renal activity [8]: 66% | liver uptake relative to 64Cu-AmBaSar ([9]; 2 h post injection): eight times higher | kidney uptake [9, 11]: 1.28±0.41 % ID/g | liver uptake [9, 11]: 1.25±0.09 % ID/g | log P [10]: −2.3
Structure (SMILES): O=C([O-])CN1CCN(CC(=O)[O-])CCN(CC(=O)O)CCN(CC(=O)O)CC1.[64Cu+2] [^64Cu-DOTA]

From patent publication US9403875B2, “Cage-like bifunctional chelators, copper-64 radiopharmaceuticals and PET imaging using the same” (UNIVERSITY OF SOUTHERN CALIFORNIA, priority 2009, dated 2016)
